Measured values from US20200407424A1 (FRAUNHOFER GESELLSCHAFT ZUR F RDERUNG DER ANGEWANDTEN …, published 2020).
Where two headings read alike, the source gives them in different places. Square brackets hold non-standard residues; d marks the D form. Ends that are not written are not given here. Cit = NC(=O)NCCC[C@H](N)C(=O)O

Assays:
Assay in all cases: in vitro binding assay
[1] = target: T1, recombinant MHC class II protein of the HLA DRB1 0101 genotype (human)
T1 construct: construct not described

[2] = target: T2, recombinant MHC class II protein of the HLA DRB1 0401 genotype (human)
T2 construct: construct not described; also called HLA-DR0401

[3] = target: T3, recombinant MHC class II protein of the HLA DRB1 0404 genotype (human)
T3 construct: construct not described

[4] = target: T4, recombinant MHC class II protein of the HLA DRB1 0405 genotype (human)
T4 construct: construct not described

[5] = target: T5, recombinant MHC class II protein of the HLA DRB1 0408 genotype (human)
T5 construct: construct not described

[6] = target: T6, recombinant MHC class II protein of the HLA DRB1 1001 genotype (human)
T6 construct: construct not described

[7] = target: T4, recombinant MHC class II protein of the …; remark: listed apart in the source
[8] = target: T1, recombinant MHC class II protein of the …; remark: listed apart in the source
[9] = target: T2, recombinant MHC class II protein of the …; remark: listed apart in the source
[10] = target: T3, recombinant MHC class II protein of the …; remark: listed apart in the source
[11] = target: T4, recombinant MHC class II protein of the …; remark: listed apart in the source
[12] = target: T3, recombinant MHC class II protein of the …; remark: listed apart in the source
[13] = target: T2, recombinant MHC class II protein of the …; remark: listed apart in the source

| binding result [1] | binding result [2] | binding result [3] | binding result [4] | binding result [5] | binding result [6] | binding result [8] | binding result [9] | binding result [10] | binding result [11] | further results | Binder |
| --- | --- | --- | --- | --- | --- | --- | --- | --- | --- | --- | --- |
| binds | no binding | binds | no binding | binds | no binding | – | – | – | – | – | VEHINKTIAPALVSK [a-enolase peptide ref no 14] |
| binds | no binding | binds | binds | no binding | binds | – | – | – | – | – | MSILKIHAREIFDSR [a-enolase peptide ref no 1] |
| – | – | – | – | – | – | – | – | – | – | binding result [7]: binds | PSGFQGLPGPPGPPG [type II collagen peptide ref no 178] |
| binds | binds | binds | binds | binds | no binding | – | – | – | – | – | KGVPLYRHIADLAGN [a-enolase peptide ref no 26] |
| – | – | – | – | – | – | no binding | binds | no binding | no binding | – | RKLLEGEESRISLPL [vimentin peptide ref no 81] |
| – | – | – | – | – | – | – | – | – | – | binding result [12]: binds | GPPGATGFPGAAGRV [type II collagen peptide ref no 224] |
| – | – | – | – | – | – | binds | binds | no binding | no binding | – | FKNT[Cit]TNEKVELQEL [citrullinated vimentin peptide ref no 111] |
| – | – | – | – | – | – | – | – | – | – | binding result [12]: binds | VMGFPGPKGANGEPG [type II collagen peptide ref no 166] |
| – | – | – | – | – | – | binds | binds | binds | binds | – | YRRMFGGPGTASRPS [vimentin peptide ref no 3] |
| binds | binds | binds | binds | binds | no binding | – | – | – | – | – | KEGLELLKTAIGKAG [a-enolase peptide ref no 45] |
| – | – | – | – | – | – | binds | binds | binds | no binding | – | SPGGVYAT[Cit]SSAV[Cit]L [citrullinated vimentin peptide ref no 104] |
| binds | binds | no binding | binds | binds | no binding | – | – | – | – | – | AEVYHNLKNVIKEKY [a-enolase peptide ref no 38] |
| – | – | – | – | – | – | binds | binds | binds | no binding | – | MSTRSVSSSSYRRMF [vimentin peptide ref no 1] |
| binds | binds | binds | binds | binds | binds | – | – | – | – | – | KSFIKDYPVVSIEDP [a-enolase peptide ref no 57] |
| – | – | – | – | – | – | no binding | binds | no binding | no binding | – | GVXLLQDSVDFSLAD (citrulline (Xaa) at 3) [citrullinated vimentin peptide ref no 108] |
| binds | no binding | binds | no binding | no binding | no binding | – | – | – | – | – | SERLAKYNQLLRIEE [a-enolase peptide ref no 81] |
| – | – | – | – | – | – | – | – | – | – | binding result [12]: binds | PQGARGFPGTPGLPG [type II collagen peptide ref no 100] |
| – | – | – | – | – | – | binds | binds | binds | binds | – | SAV[Cit]L[Cit]SSVPGV[Cit]LL [citrullinated vimentin peptide ref no 106] |

| binding result [1] | binding result [2] | binding result [3] | binding result [4] | binding result [5] | binding result [6] | binding result [8] | binding result [9] | binding result [10] | binding result [11] | further results | Binder |
| --- | --- | --- | --- | --- | --- | --- | --- | --- | --- | --- | --- |
| – | – | – | – | – | – | – | – | – | – | binding result [13]: binds; binding result [12]: binds | PGLQGMPGE[Cit]GAAGI [citrullinated type II collagen peptide ref no 386] |
| no binding | no binding | no binding | binds | no binding | no binding | – | – | – | – | – | LLKVNQIGSVTESLQ [a-enolase peptide ref no 69] |
| no binding | binds | no binding | binds | binds | no binding | – | – | – | – | – | KGVPLY[Cit]HIADLAGN [citrullinated a-enolase peptide ref no 299] |
| – | – | – | – | – | – | – | – | – | – | binding result [13]: no binding; binding result [12]: binds; binding result [7]: binds | LAGQRGIVGLPGQRG [type II collagen peptide ref no 241] |
| – | – | – | – | – | – | no binding | binds | binds | no binding | – | VDQLTNDKARVEVER [vimentin peptide ref no 33] |
| binds | no binding | no binding | binds | no binding | no binding | – | – | – | – | – | ANFREAMRIGAEVYH [a-enolase peptide ref no 36] |
| – | – | – | – | – | – | no binding | binds | no binding | no binding | – | DNASLA[Cit]LDLE[Cit]KVE [citrullinated vimentin peptide ref no 133] |
| – | – | – | – | – | – | no binding | no binding | binds | no binding | – | THSK[Cit]TLLIKTVET[Cit] [citrullinated vimentin peptide ref no 166] |
| – | – | – | – | – | – | – | – | – | – | binding result [7]: binds | GHRGFTGLQGLPGPP [type II collagen peptide ref no 272] |
| binds | no binding | no binding | binds | binds | binds | – | – | – | – | – | RYMGKGVSKAVEHIN [a-enolase peptide ref no 12] |
| binds | no binding | binds | no binding | no binding | no binding | – | – | – | – | – | GVSKAVEHINKTIAP [a-enolase peptide ref no 13] |
| – | – | – | – | – | – | – | – | – | – | binding result [13]: binds; binding result [12]: binds; binding result [7]: binds | GIVGLPGQ[Cit]GE[Cit]GFP [citrullinated type II collagen peptide ref no 411] |
| – | – | – | – | – | – | – | – | – | – | binding result [12]: binds | GDRGETGAVGAPGAP [type II collagen peptide ref no 257] |
| binds | no binding | binds | no binding | binds | no binding | – | – | – | – | – | KTIAPALVSKKLNVT [a-enolase peptide ref no 15] |
| binds | no binding | no binding | binds | binds | no binding | – | – | – | – | – | GAPCRSERLAKYNQL [a-enolase peptide ref no 80] |
| – | – | – | – | – | – | – | – | – | – | binding result [12]: binds | PGLQGMPGERGAAGI [type II collagen peptide ref no 195] |
| – | – | – | – | – | – | binds | binds | no binding | no binding | – | YAT[Cit]SSAV[Cit]L[Cit]SSVP [citrullinated vimentin peptide ref no 105] |
